The series can be described thus: yeast display, Sf9 membrane polyspecificity reagent, FACS + sequencing; frameworks hold sequencing errors. Summed up:
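Polyreactivity labels are assigned by the sorting gate from which each nanobody was recovered. The gates were low and high (top ~1%), set on anti-HA fluorescence for expression and streptavidin fluorescence for reagent binding. Before sorting, galactose-induced (36–48 hours) yeast display cells were stained for 1 hour at 4 °C with 10% biotinylated, detergent-solubilized Sf9 membrane reagent.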
With “QVQLVESGGGIVQAGGTLRLSCAASGIIFGSYAMGWYRQEPGKERELVAAINSSGGSTHYADSVKGRFTISRDNSKNTVYLQMNSLKPEDTAVYYCAADGYWRDYSGYWDYYYIYDYCGQGTQVTVSS”, the “polyreactivity (PSR sort gate)” value is “low polyreactivity”.

“QVQLVESGGGIVQAGGTLRLSCAPYGSNYYAMACYRQAPGKDRDFVAAITTRGGGTYYADSVKGRFTISRDNAQNTVYLQMFSLKPVDTAVYVCAAEDYRPRTYVYRYRYYYWGQGTQVTVSS”: the “polyreactivity (PSR sort gate)” value is given as “high polyreactivity”.

“QVQLVESGGGIVQAGRSLRLSCAASGRTFHGYAMGWYRQAPGKERELVAAITGTGGRTYYAESVKGRFTISRDKAKNTVYLQMNSLKPEDTAVYYCAARPWIKSGYWGQGTQVTVSS”: the “polyreactivity (PSR sort gate)” value is given as “high polyreactivity”.

Consider “QVQLVESGGGIVQAGRSLRLSCPASGLIFGPYTMGWYRQAPGKERELVAAISRSGGITYYADSVKGRFTISRDNATNTVYLQMNSLKPEDTAVYYCAARLVRESEPLGYWGQGTQVTLSS”, for which the “polyreactivity (PSR sort gate)” value was “high polyreactivity”.

“QVQLVESGGGIVQAGVSLRLISAASGRIFRINAMGWYRQAPGKERDLVADITSGGSTNYADSVKGRFTISRDNAKITVYLQMNSLKPEDTAVYFCAPGYVTYRTRLDYWGQGTQVTVSS”: the “polyreactivity (PSR sort gate)” value was “low polyreactivity”.

As for “QVQLVESGGGIVQAGVSLRLSCAASGISYSPNVMGWYRQAPGKERELVASISSGGSTYYADSVNGRFTISRDNATNSVYLQMNSLKPEDTAVYYCAAEVDGYWTYYYWGQGTQVTVSS”, the “polyreactivity (PSR sort gate)” value is given as “low polyreactivity”.

For the sequence “QVQLVESGGGIVQAVGSLRLSCAASGSTFRLYAMGWYRQAPGKERELVAAISSNGVRTYYADSVKGRFTISRDNAKNTVYLQINSLKPEDTAVYYCAARVYPAYPRGYDYWGQGTQVNVSS”, the “polyreactivity (PSR sort gate)” value is recorded as “high polyreactivity”.

As to “QVQLVESGGGIVQEAGSLSLSCAASRLTFTTYNMGWSRPAPGKERELVAALSSRGGSTYYADSVKGRFTISRDNAKNTVYLEKNSLKPEDTAVDYCNAPRPHRMDWGQGTQVTVSS”, the “polyreactivity (PSR sort gate)” value is reported as “high polyreactivity”.

With “QVQLVESGGGIVQPGGRLRLSCAASGSILYGYAMGWYRQAPGKERELVAVITSGGSTNYADTVKGRFTISRDNAKNTVYLQMNSLKPEDTAVYYCAADPYSVYGGDYWGQGTQVTVSS”, the “polyreactivity (PSR sort gate)” value is “low polyreactivity”.

Turning to “QVQLVESGGGIVQSGGSLGLSCAASGYTFRTNVMGWYRQAPGKERELVATINWRGGSTYYADSVKGRFTISRDTAKNTVYLQMNSLKPEDTAVYYCAKTYSYYRTMDYWGQGTQVTGSS”, the “polyreactivity (PSR sort gate)” value was “low polyreactivity”.

Turning to “QVQLVESGGGKVQAGGSLRLICAASGSTFTYNTMGWYRQAPGKERELVAAISSGGSTYYADSVKGRFTISRDNAKNTVYLQLNSLNPVDTAVYYCAATAQKYSRYGSRYYYWGQGTQVTVSS”, the “polyreactivity (PSR sort gate)” value was “high polyreactivity”.

As to “QVQLVESGGGLAQAGGSLRLSCAASGNIFRINGMGWYRQAPGKERELVASITRSGSTYYADSVKGRFTISRDNAKNTVYLQMNSLKPEDTAVYFCAADSRRYGVRFDYWGQGTQVTVSS”, the “polyreactivity (PSR sort gate)” value is on record as “low polyreactivity”.

As for “QVQLVESGGGLAQAGGSLRLSCAASGRTFRRYAMGWYRQAPGKEREMVAAITSGGDTYYADSVKGRFTISRDNAKNTVYLQMNSLKPEDTAVYYCNAASVTRRTGIRAVDFDYWGQGTQVTVSS”, the “polyreactivity (PSR sort gate)” value is recorded as “high polyreactivity”.

In the case of “QVQLVESGGGLDHAGGPLRLSCAASGTIFAYYNMGWYRQPPGKERELVAGISKRGGNTYYADSVKGRFTISRDNAKNTVYLQMNSLKPEDTAVYYCNKRYSANTRGYYYWGQGTQVTVSS”, the “polyreactivity (PSR sort gate)” value is “high polyreactivity”.

Turning to “QVQLVESGGGLDQAGGRLPLTWAASGFTFWKYAMGLYRQAPGKERELVAANSVSGGRTYYADSVKGRFTISRDNAKNTVSLQMNRLKPEDTAVYFCNATPWRPYVGGEYWGQGTQVTVSS”, the “polyreactivity (PSR sort gate)” value was “high polyreactivity”.

“QVQLVESGGGLDQAGGRLRLSCAASGRTFIVFAMGWYRQAPGKESELVAGITRGSTNYADSVKGRFTISRDNAKNTVYLQMNSLKPEDTEVYYCATEVYIWPWGTVYAFEYDYWGQGTQVTVSS”: the “polyreactivity (PSR sort gate)” value is “high polyreactivity”.

“QVQLVESGGGLDQAGGRLRLSSAASGYTFRNYAKGLYRQATGQERELVAAITSSTSSTYYADSVKGRFTISRDNAKNTVYLQMNSLKPEDTAVYYCNRVWSPYMDYWGQGTQVTVSS”: the “polyreactivity (PSR sort gate)” value is reported as “high polyreactivity”.

In the case of “QVQLVESGGGLDQAGGSLPLSCAASGSTFPGNAMGWYSQARGKERELVARINDGADTNYADSVKGRFTISRDNAKNTVYLQMNSLKPEDTAVYYCAADKRGTVYLSSFWMDYWGQGTQVTVSS”, the “polyreactivity (PSR sort gate)” value is on record as “low polyreactivity”.

“QVQLVESGGGLDQAGGSLRLICAASGRIFDVNAMGWYRQAPGKERELVAAISDSGGSTYYADSVKGRFTISRDNAKNTVYLQMNSLKPEDTAVYYCNANTPSLKRSTFNYWGQGTQVTVSS”: the “polyreactivity (PSR sort gate)” value is reported as “low polyreactivity”.

With “QVQLVESGGGLDQAGGSLRLICAASGSTFISNVMGWYRPAPGKERELVAAITRSSGRTYYADSVKGRFTISRDNAKNTVYLQMNSLKPEDTAVYYCAARPRGRGVDYWGQGTQVTVSS”, the “polyreactivity (PSR sort gate)” value is given as “high polyreactivity”.

Turning to “QVQLVESGGGLDQAGGSLRLICAASVRTFFVNAMGRYRQAPGKERELVATITFSGDSTYYADSVKGRFTISRDNAKNTVYLQMNSLKPADTAVYYCAAYQGQKGYDYWGQGTQVTVSS”, the “polyreactivity (PSR sort gate)” value is reported as “high polyreactivity”.

Turning to “QVQLVESGGGLDQAGGSLRLRCAASGIIFDYNGMGWYRQAPGKERELVAVISFSGSGTYYADSVKGRFTISRDNAKNTVYLHMNSLKPEDTAVYYCAADTGPYFEYEYWGQGTQVTVSS”, the “polyreactivity (PSR sort gate)” value was “low polyreactivity”.

On to “QVQLVESGGGLDQAGGSLRLSCAAAGSIFDYYAMGSYRQAPGKERELVAAISWSGGSTYFADSVKGRFTISRDNAKNTVYLQMNSLKPEDTAVYYCAARGFWGQGTQVTVSS”, for which the “polyreactivity (PSR sort gate)” value is “low polyreactivity”.

As for “QVQLVESGGGLDQAGGSLRLSCAASASIFWGYDMGWYRQAPGKEREFVARISYSGGSTSYAESVKGRFTISRDNAKNTVYLQMNSLKPEDTAVYYCAADEGVFWWTYPYDSWGQGTQVTVSS”, the “polyreactivity (PSR sort gate)” value is given as “low polyreactivity”.

Take “QVQLVESGGGLDQAGGSLRLSCAASASTFYANAMGWYRQSPGKEREFVAAIDWSGATTYYADSVKGRFTISRDNAMNTVYLQMNSLKPEDTAVYYCAAEVYFLATGTWYDYWGLGTQVTVSS”: the “polyreactivity (PSR sort gate)” value was “high polyreactivity”.

As for “QVQLVESGGGLDQAGGSLRLSCAASGAIFPIYAMGWYRQAPGKERELVAAINRSGGSTYYADSVKGRFTISRDTAKNTVYLQMNSLKPEDSAVYYCNADYGYHNQLFWGYYGWSSDHWGQGTQVTVSS”, the “polyreactivity (PSR sort gate)” value is on record as “low polyreactivity”.

Regarding “QVQLVESGGGLDQAGGSLRLSCAASGFIFKYYVMGWYRQAPGKERELVAAISLSDARTNYADSVKGRFTISRDNAKNTVYLQMHSLKPVDTAFYYCAAKSHYYTSGHRHYDYWGQGTQVTVSS”, the “polyreactivity (PSR sort gate)” value is “high polyreactivity”.

Take “QVQLVESGGGLDQAGGSLRLSCAASGFIFNNYAMGSYRQAPGKERELVAAITWSGGGTYYADSVKGRFTISRDNAKNTVYLQMNSLKPEDTAVYYCADYYPAYRDEYWGQGTQVTVSS”: the “polyreactivity (PSR sort gate)” value is “high polyreactivity”.

As for “QVQLVESGGGLDQAGGSLRLSCAASGFIFPAYAMGWYRQAPGKERELVAAITTRGGSTYYADSVKGRFTISRDNAKNTVYLQMNSLKPEDTAVYYCAAYAVWYRYYYWGQGTQVTVSS”, the “polyreactivity (PSR sort gate)” value was “low polyreactivity”.

Turning to “QVQLVESGGGLDQAGGSLRLSCAASGFIFSYYTMGWYRHAPGKERELVAAIRSSGGSTYADSVKGRFTISRDNAKNTVYLQMNSLKPEDTAVYYCAAESYYPAGIRGYWGQGTQVTVSS”, the “polyreactivity (PSR sort gate)” value is given as “high polyreactivity”.

Take “QVQLVESGGGLDQAGGSLRLSCAASGFIFVYNVMGWYRQAPGKEREFVATITWRGVTTYYADSVKGRFTISRDNAKNTVYLQMNSLKPEDTAVYYCAVTVAYSYPRRSHYYWGQGTQVTVSS”: the “polyreactivity (PSR sort gate)” value was “low polyreactivity”.

Regarding “QVQLVESGGGLDQAGGSLRLSCAASGFIFYQNAMGWYKQAPGKERELFAAISTTGSRTYYADSVKGRFTISRDNPKNTVYLQMNRLKPVDTAVYYCATPLQQEGDWGQGTQVTVSS”, the “polyreactivity (PSR sort gate)” value is reported as “high polyreactivity”.

Take “QVQLVESGGGLDQAGGSLRLSCAASGFILDTYGMGWYRQATGTERELVAAISQSDVSTYYADSVKGRFTISRDNAKNTVYLQMNSLKPEDTAVYYCAAAHLSYRRRYESWGQGTQVTVSS”: the “polyreactivity (PSR sort gate)” value is given as “low polyreactivity”.

As to “QVQLVESGGGLDQAGGSLRLSCAASGGIFDDYAKGRYRQAPRKERELVAAISSSGGSTYYADSVKGRFTISLDNAKNTVYLQMNSLKPEYTAVYLCNADSRGSFGYWGQGTQVTVSS”, the “polyreactivity (PSR sort gate)” value is “high polyreactivity”.

For “QVQLVESGGGLDQAGGSLRLSCAASGIIFGTNAMGWYIQAPGKESELVAAITWSGGNTTYADSVKGRFTISRDNAKNTVYLQMNSLKPEDTAVYYCAADFTRAGDYDYWGQGTQVTVSS”, the “polyreactivity (PSR sort gate)” value was “low polyreactivity”.

“QVQLVESGGGLDQAGGSLRLSCAASGIIFPVYARGGYRQAPGKERELVAAISSVGSTNYADSVKGRFTISRDNAKNTVYLQMNSLKPEDTAVYYCAVDWAQEDGYWGQGPQVTVSS”: the “polyreactivity (PSR sort gate)” value is listed as “low polyreactivity”.

“QVQLVESGGGLDQAGGSLRLSCAASGIIFSLYAMGSYRQAPGKERELVAAISASDGDTYYADSVKGRFTISRDNAKNTVYLQMNSLKPEDTAVYYCAADATYYLGYEAEYYYWGQGTQVTVSS”: the “polyreactivity (PSR sort gate)” value was “low polyreactivity”.

In the case of “QVQLVESGGGLDQAGGSLRLSCAASGIIFWEYAMGWYRQAPGKERELVAAINARGTRTYYADSVKGRFTISRDNAKNTVYLQMNSLKPEDTAVYYCAADRYGWTRYDSWGQGTQVTVSS”, the “polyreactivity (PSR sort gate)” value was “high polyreactivity”.

Regarding “QVQLVESGGGLDQAGGSLRLSCAASGIIPYYYVMGWYRQAPGKERELVAAINRSGTSTYYADSVKGRFTISRDNAKNTVYLQMNSLKPEDTAVYYCAAERYWSGGVFDYDYWGQGTQVTVSS”, the “polyreactivity (PSR sort gate)” value is given as “high polyreactivity”.

As for “QVQLVESGGGLDQAGGSLRLSCAASGITFKSNAMGWYRQAPGKESELVAAISRRASSTYYADSVKGRFTISRDNAKHTVYLQMNSLKPEDTAVYYCNAVLPVYRTNMDYWGQGTQVTVSS”, the “polyreactivity (PSR sort gate)” value is reported as “high polyreactivity”.

As to “QVQLVESGGGLDQAGGSLRLSCAASGITFKSYAMGWYRQAPGKERELVAAITYRSGSTYYADSVKGRFTISRDNAKNTVYLQMNSLKPEDTAVYYCAVGGKFQIQTYYQRYNYWGQGTQVTVSS”, the “polyreactivity (PSR sort gate)” value is “high polyreactivity”.

(Values after the nanobody polyreactivity screen of Harvey et al. (2022).)
